Measured values as given in patent publication US20220396813.

Columns and labels:
Assay in all cases: cell_activity
[1] = test system: T1, Rec22 WP_016392893.1 (Pseudomonas plecoglossicida); conditions: HEK293T inversion; background 1.66
T1 sequence: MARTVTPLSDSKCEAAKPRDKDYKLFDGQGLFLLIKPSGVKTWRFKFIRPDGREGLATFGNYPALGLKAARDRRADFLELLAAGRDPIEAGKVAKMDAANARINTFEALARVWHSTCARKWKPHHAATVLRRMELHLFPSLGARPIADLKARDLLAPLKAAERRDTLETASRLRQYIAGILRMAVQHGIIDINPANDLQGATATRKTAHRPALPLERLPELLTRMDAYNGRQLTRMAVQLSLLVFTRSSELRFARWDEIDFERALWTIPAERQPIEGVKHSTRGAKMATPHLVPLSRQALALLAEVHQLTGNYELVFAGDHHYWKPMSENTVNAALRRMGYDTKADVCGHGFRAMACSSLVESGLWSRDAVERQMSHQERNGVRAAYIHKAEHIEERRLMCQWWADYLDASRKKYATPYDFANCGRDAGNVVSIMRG

[2] = test system: T2, Rec24 WP_046407494.1 (Sphingomonas sp.); conditions: HEK293T inversion; background 2.34
T2 sequence: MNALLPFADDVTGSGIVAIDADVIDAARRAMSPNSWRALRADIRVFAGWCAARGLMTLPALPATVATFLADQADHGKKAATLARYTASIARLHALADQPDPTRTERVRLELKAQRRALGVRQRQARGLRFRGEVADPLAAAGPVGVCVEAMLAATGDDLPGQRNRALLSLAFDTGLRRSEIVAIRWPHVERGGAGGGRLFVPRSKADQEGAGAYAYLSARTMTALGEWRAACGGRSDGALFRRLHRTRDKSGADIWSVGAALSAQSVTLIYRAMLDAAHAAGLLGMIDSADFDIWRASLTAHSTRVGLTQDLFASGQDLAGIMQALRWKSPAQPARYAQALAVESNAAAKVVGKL

[3] = test system: T3, Rec21 WP_010365336.1 (Pseudoalteromonas citrea); conditions: HEK293T inversion; background 4.91
T3 sequence: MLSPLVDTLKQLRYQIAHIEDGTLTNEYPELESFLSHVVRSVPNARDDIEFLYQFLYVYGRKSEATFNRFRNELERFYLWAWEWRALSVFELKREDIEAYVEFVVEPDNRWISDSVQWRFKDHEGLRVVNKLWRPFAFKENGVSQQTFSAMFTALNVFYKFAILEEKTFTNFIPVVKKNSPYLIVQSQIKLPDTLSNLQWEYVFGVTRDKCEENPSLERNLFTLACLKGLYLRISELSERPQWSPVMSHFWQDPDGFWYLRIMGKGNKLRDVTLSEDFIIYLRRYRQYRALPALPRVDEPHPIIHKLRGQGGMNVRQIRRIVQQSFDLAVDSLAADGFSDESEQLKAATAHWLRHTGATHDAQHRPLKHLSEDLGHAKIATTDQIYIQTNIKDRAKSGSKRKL

[4] = test system: T4, Rec18 WP_007635552.1 (Paraglaciecola psychrophila); conditions: HEK293T inversion; background 1.255
T4 sequence: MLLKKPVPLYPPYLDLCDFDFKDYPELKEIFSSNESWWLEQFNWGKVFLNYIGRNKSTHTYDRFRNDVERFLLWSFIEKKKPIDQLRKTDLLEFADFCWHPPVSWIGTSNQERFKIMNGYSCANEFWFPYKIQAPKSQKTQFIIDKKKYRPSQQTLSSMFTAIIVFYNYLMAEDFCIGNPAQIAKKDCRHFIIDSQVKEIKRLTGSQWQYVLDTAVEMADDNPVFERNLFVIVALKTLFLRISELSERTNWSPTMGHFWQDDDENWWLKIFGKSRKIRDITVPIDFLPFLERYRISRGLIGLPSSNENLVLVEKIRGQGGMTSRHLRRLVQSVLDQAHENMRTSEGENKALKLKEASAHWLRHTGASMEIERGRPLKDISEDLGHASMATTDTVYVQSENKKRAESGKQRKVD

## GACCACTCCAGANNNNNNNNNTCTGGAGTGGTG (double strand) [Rec22 natural site]
[1]
  activity: 1.45 % GFP+

## GCACTAGCGATANNNNNNNNTATCACTAGTGC (double strand) [Rec24 natural site]
[2]
  activity: 17.1 % GFP+

## TAATGTCCAATANNNNNNNNTATCGGACATAA (double strand) [Rec21 natural site]
[3]
  activity: 4.75 % GFP+

## TTATGTCCAATANNNNNNNNTATTGGACATAG (double strand) [Rec17-18 natural site]
[4]
  activity: 0.202 % GFP+
